Data on five molecules can be found in patent US9175313B2, “Three-dimensional structure of isoprene synthase and its use thereof for generating variants” (Danisco US Inc., priority 2009, dated 2015).

A short description of series [1]: DMAPP assay of site evaluation library (SEL) lysates with ELISA protein quantitation: specific activity ranked as performance index. The series is classed as biochemical. The note with it: primary SEL screen; activity on DMAPP per unit weight relative to the parental molecule (parent = 1). The method, then:
1. Prepared Patch Plates from Glycerol Stock Plates. Using a V&S 96 pin Replication Tool, cultures were patched onto a LB Agar 35 CMP/50 Kan large patch plates from overnight glycerol stock plates. Plates were incubated at 30° C. overnight for 20 to 24 hr. Cultures can be stored at 4° C. for up to a week.
2. Prepared Overnight Growth Plates. 500 mL of LB 35 CMP/50 Kan media were prepared. 300 μL/well of LB 35 CMP/50 Kan media were dispensed into deep 96 well plates (VWR). Using a V&S Replication Tool, the patch inoculum was transferred into deep 96 well plate by touching the tool pins to respective patch and using a circular motion to coat the pins with inoculum. The media was inoculated by dipping the tool then shaking the pin within the well. The overnight growth plates were sealed using a Breathe-Easier Sealing Membrane (Diversified Biotech). The plates were incubated in a Vertiga Shaking Incubator at 30° C. with shaking at 800 rpm overnight for 16 to 18 hr.
3. Prepared Day Growth Plate. Deep 96 well plates were prepared by dispensing 588 μL/well of LB 35 CMP/50 Kan media. Overnight growth plates were removed from the incubator. Overnight cultures were diluted 50-fold and 12 μL of overnight culture were transferred to day growth plates containing 588 μL/well of LB media containing antiobiotics. Overnight growth plates were sealed with new Breathe-Easier Sealing Membranes. Cultures were incubated at 30° C. and 800 rpm for 2.5 hr. Frozen 12 mM IPTG (Sigma) vials were removed from −20° C. and placed in a hood to thaw.
4. OD600 Plate Read of Overnight, Induction, and Harvest. 150 μL 1×PBS were dispensed into 96 well Costar Read Plates (#9017). 50 μL of culture samples were transferred to Read Plates. The OD600 reading was recorded using a Spectramax Plate Reader (Molecular Devices).
5. Induction. Electronic multi-channel pipettors were prepared to dispense 4×20 μL/well of IPTG (if 4× replicates). The multi-dispense option in the electronic pipettor was adjusted if more replicates was necessary. Thawed 12 mM IPTG was poured into 50 mL or 100 mL sterile reservoirs. 20 μL/well of IPTG into each 600 μL/well culture. Overnight growth plates were resealed. Cultures were incubated at 30° C. and 800 rpm for 4 hr. OD600 readings of plates were recorded according instructions above.
6. Harvest. 400 μL of induced culture were transferred to 800 μL Grenier storage plates. Plates were centrifuged at 3300 rpm for 20 min at 2° to 8° C. in a low speed benchtop centrifuge. Supernatants were discarded, pellets should stay in the conical bottom well. Residual supernatants were slapped out onto a paper towel on the benchtop. Plates were sealed with an aluminum foil membrane (Beckman-Coulter). Plates were covered with a plastic plate lid if available. Storage plates were labeled accordingly and stored frozen at −80° C.
Plates containing induced cell pellets were removed from the −80° C. freezer and allowed to thaw on the benchtop for 30 minutes prior to lysis. 200 μl of lysis buffer (50 mM Tris pH 8, 25 mM MgCl2, 74 μg/ml DNase I, 250 U/ml lysozyme, 0.1% Tween 20, 0.5 mM PMSF) was added to each pellet, and plates were incubated on an Eppendorf Thermomixer at 25° C. for 30 minutes at 1200 rpm. After lysis, plates were centrifuged at 3450 rpm for 15 minutes at 4° C. Supernatants were then removed and diluted 10-fold prior to DMAPP assay. 80 μl of the diluted supernatant was added to 20 μl of the DMAPP working stock (20 mM DMAPP in 0.1 M Phosphate Buffer pH 8.2, DMAPP triammonium salt, Cayman chemicals) in a Zinsser glass block. Blocks were then sealed with aluminum sealing membranes, and incubated in Thermomixers at 25° C. for 30 minutes at 450 rpm. Reactions were stopped by incubating blocks on Thermomixers at 70° C. for 12 minutes at 450 rpm. GC-MS was then used for headspace measurements to calculate the amount of isoprene produced by each lysates.
Headspace Assay. […]

Series [2] in a line: Specific activity measurement of purified isoprene synthase variants (4 mM DMAPP, 30 C, GC-MS headspace). The note with it: 50 mM NaCl, 50 mM Tris pH = 8, 30° C.; for Variant S.A./WT S.A.: ratio to WT. The format is biochemical. The method, then:
1. Initial Purification—Resuspend the pellet in 3 ml of fresh lysis buffer. Break cells by passing them through the French Press using the small cylinder. Centrifuge samples for 1 hour at 30,000×G and collect the supernatant. Retain pellet in order to test for presence of insoluble protein. Pre equilibrate 0.5 mL Ni Sepharose 6 Fast Flow resin (Amersham) in a 20 ml disposable column with 10 mL of Ni wash buffer. Add protein to column and shake for 60 min at 4 C to bind protein. Elute protein with 2.5 mL Ni elution buffer.
2. Buffer Exchange—Equilibrate a PD-10 column (GE Healthcare) with 25 mL of PD-10 buffer. Load protein on to column and elute with 3.5 mL of PD-10 buffer.
10 uL of purified enzyme was incubated with 4 mM DMAPP, 50 mM MgCl2 in a buffer containing 50 mM Tris and 50 mM NaCl (pH=8) to a final volume of 100 uL for 15 min. at 30 C in gas tight 2 mL vials. Reactions were terminated with the addition of 100 uL of […] EDTA, pH=8. Samples were analyzed by GC-MS to determine the concentration of isoprene in the headspace of the vials. All specific activity measurements were performed in triplicate.
Protein concentration was determined by measuring the absorbance of each protein solution at 280 nm on a Helwlett Pachard 8453 UV-Vis spectrophotometer and converting the absorbance to protein concentration using the extinction coefficient as determined on the Expasy website (Gasteiger E., Hoogland C., Gattiker A., Duvaud S., Wilkins M. R., Appel R. D., Bairoch A.; Protein Identification and Analysis Tools on the ExPASy Server; (In) John M. Walker (ed): The Proteomics Protocols Handbook, Humana Press (2005). pp. 571-607). The protein concentrations of isoprene synthase variants assayed for KM and kcat determination were verified by comparative gel electrophoresis of a dilution series of each protein (FIG. 61).

B1: D345R: P. alba IspS variant (protein, UniProt Q50L36 38-595, looked up, variant D345R)
Isoprene synthase, …: CSVSTENVSFTETETEARRSANYEPNSWDYDYLLSSDTDESIEVYKDKAKKLEAEVRREINNEKAEFLTLLELIDNVQRLGLGYRFESDIRGALDRFVSSGGFDAVTKTSLHGTALSFRLLRQHGFEVSQEAFSGFKDQNGNFLENLKEDIKAILSLYEASFLALEGENILDEAKVFAISHLKELSEEKIGKELAEQVNHALELPLHRRTQRLEAVWSIEAYRKKEDANQVLLELAILDYNMIQSVYQRDLRETSRWWRRVGLATKLHFARDRLIESFYWAVGVAFEPQYSDCRNSVAKMFSFVTIIRDIYDVYGTLDELELFTDAVERWDVNAINDLPDYMKLCFLALYNTINEIAYDNLKDKGENILPYLTKAWADLCNAFLQEAKWLYNKSTPTFDDYFGNAWKSSSGPLQLVFAYFAVVQNIKKEEIENLQKYHDTISRPSHIFRLCNDLASASAEIARGETANSVSCYMRTKGISEELATESVMNLIDETWKKMNKEKLGGSLFAKPFVETAINLARQSHCTYHNGDAHTSPDELTRKRVLSVITEPILPFER
B1: the performance index in series [1] stood at 0.40.

B2: NPC: P. alba MEA A453N L494P T536C (+) TEV; pDW108, SEQ ID NO: 83 (protein)
chain: MEARRSANYEPNSWDYDYLLSSDTDESIEVYKDKAKKLEAEVRREINNEKAEFLTLLELIDNVQRLGLGYRFESDIRGALDRFVSSGGFDAVTKTSLHGTALSFRLLRQHGFEVSQEAFSGFKDQNGNFLENLKEDIKAILSLYEASFLALEGENILDEAKVFAISHLKELSEEKIGKELAEQVNHALELPLHRRTQRLEAVWSIEAYRKKEDANQVLLELAILDYNMIQSVYQRDLRETSRWWRRVGLATKLHFARDRLIESFYWAVGVAFEPQYSDCRNSVAKMFSFVTIIDDIYDVYGTLDELELFTDAVERWDVNAINDLPDYMKLCFLALYNTINEIAYDNLKDKGENILPYLTKAWADLCNAFLQEAKWLYNKSTPTFDDYFGNAWKSSSGPLQLVFAYFAVVQNIKKEEIENLQKYHDTISRPSHIFRLCNDLASASAEIARGETNNSVSCYMRTKGISEELATESVMNLIDETWKKMNKEKLGGSPFAKPFVETAINLARQSHCTYHNGDAHTSPDELTRKRVLSVICEPILPFERENLYFQGLEHHHHHH
modifications: TEV site
Take B2: in series [2], the S.A. is reported as 440 ± 20 nmol/mg/min and the “Variant S.A./WT S.A.” value amounted to 0.9.

B3: NSPC: P. alba MEA A453N G491S L494P T536C (+) TEV; pDW109, SEQ ID NO: 85 (protein)
chain: MEARRSANYEPNSWDYDYLLSSDTDESIEVYKDKAKKLEAEVRREINNEKAEFLTLLELIDNVQRLGLGYRFESDIRGALDRFVSSGGFDAVTKTSLHGTALSFRLLRQHGFEVSQEAFSGFKDQNGNFLENLKEDIKAILSLYEASFLALEGENILDEAKVFAISHLKELSEEKIGKELAEQVNHALELPLHRRTQRLEAVWSIEAYRKKEDANQVLLELAILDYNMIQSVYQRDLRETSRWWRRVGLATKLHFARDRLIESFYWAVGVAFEPQYSDCRNSVAKMFSFVTIIDDIYDVYGTLDELELFTDAVERWDVNAINDLPDYMKLCFLALYNTINEIAYDNLKDKGENILPYLTKAWADLCNAFLQEAKWLYNKSTPTFDDYFGNAWKSSSGPLQLVFAYFAVVQNIKKEEIENLQKYHDTISRPSHIFRLCNDLASASAEIARGETNNSVSCYMRTKGISEELATESVMNLIDETWKKMNKEKLSGSPFAKPFVETAINLARQSHCTYHNGDAHTSPDELTRKRVLSVICEPILPFERENLYFQGLEHHHHHH
modifications: TEV site
For the molecule B3, in series [2], the S.A. is given as 502 ± 6 nmol/mg/min and the “Variant S.A./WT S.A.” value came to 1.1.

B4: NSP: P. alba MEA A453N G491S L494P (+) TEV; pDW106, SEQ ID NO: 79 (protein)
chain: MEARRSANYEPNSWDYDYLLSSDTDESIEVYKDKAKKLEAEVRREINNEKAEFLTLLELIDNVQRLGLGYRFESDIRGALDRFVSSGGFDAVTKTSLHGTALSFRLLRQHGFEVSQEAFSGFKDQNGNFLENLKEDIKAILSLYEASFLALEGENILDEAKVFAISHLKELSEEKIGKELAEQVNHALELPLHRRTQRLEAVWSIEAYRKKEDANQVLLELAILDYNMIQSVYQRDLRETSRWWRRVGLATKLHFARDRLIESFYWAVGVAFEPQYSDCRNSVAKMFSFVTIIDDIYDVYGTLDELELFTDAVERWDVNAINDLPDYMKLCFLALYNTINEIAYDNLKDKGENILPYLTKAWADLCNAFLQEAKWLYNKSTPTFDDYFGNAWKSSSGPLQLVFAYFAVVQNIKKEEIENLQKYHDTISRPSHIFRLCNDLASASAEIARGETNNSVSCYMRTKGISEELATESVMNLIDETWKKMNKEKLSGSPFAKPFVETAINLARQSHCTYHNGDAHTSPDELTRKRVLSVITEPILPFERENLYFQGLEHHHHHH
modifications: TEV site
As for B4, in series [2], the S.A. was 465 ± 2 nmol/mg/min and the “Variant S.A./WT S.A.” value amounted to 1.0.

B5: NSC: P. alba MEA A453N G491S T536C (+) TEV; pDW107, SEQ ID NO: 81 (protein)
chain: MEARRSANYEPNSWDYDYLLSSDTDESIEVYKDKAKKLEAEVRREINNEKAEFLTLLELIDNVQRLGLGYRFESDIRGALDRFVSSGGFDAVTKTSLHGTALSFRLLRQHGFEVSQEAFSGFKDQNGNFLENLKEDIKAILSLYEASFLALEGENILDEAKVFAISHLKELSEEKIGKELAEQVNHALELPLHRRTQRLEAVWSIEAYRKKEDANQVLLELAILDYNMIQSVYQRDLRETSRWWRRVGLATKLHFARDRLIESFYWAVGVAFEPQYSDCRNSVAKMFSFVTIIDDIYDVYGTLDELELFTDAVERWDVNAINDLPDYMKLCFLALYNTINEIAYDNLKDKGENILPYLTKAWADLCNAFLQEAKWLYNKSTPTFDDYFGNAWKSSSGPLQLVFAYFAVVQNIKKEEIENLQKYHDTISRPSHIFRLCNDLASASAEIARGETNNSVSCYMRTKGISEELATESVMNLIDETWKKMNKEKLSGSLFAKPFVETAINLARQSHCTYHNGDAHTSPDELTRKRVLSVICEPILPFERENLYFQGLEHHHHHH
modifications: TEV site
Take B5: in series [2], the S.A. worked out at 390 ± 20 nmol/mg/min and the “Variant S.A./WT S.A.” value turned out to be 0.8.
